Assay results from FireProtDB (doi:10.1016/0022-2836(74)90188-0).

Details: Aspergillus oryzae (strain ATCC 42149 / RIB 40); pH 4.7; 38 °C; GdnHCl; DSC; glycine 0.04 M; reversible: yes(>90%); whole UniProt chain shown

B1: Guanyl-specific ribonuclease T1 wild type, P00651 (protein)
chain: MMYSKLLTLTTLLLPTALALPSLVERACDYTCGSNCYSSSDVSTAQAAGYQLHEDGETVGSNSYPHKYNNYEGFDFSVSSPYYEWPILSSGDVYSGGSPGADRVVFNENNQLAGVITHTGASGNNFVECT
- unfolding free energy: 6.6 kcal/mol
